Earlier results as cited in article PMC7866199.

Legend:
[1] = biological target: NPT2A C-terminal 22 aa (Homo sapiens) (UniProt Q06495)
[2] = biological target: GRK6A C-terminal PDZ ligand (Homo sapiens) (UniProt P43250)
UniProt P43250, sequence (P43250 555-576): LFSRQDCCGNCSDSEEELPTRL

UniProt Q06495, sequence (Q06495 618-639): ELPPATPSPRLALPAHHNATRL

For NHERF1 (from UniProt O14745), the Kd [1] is listed as 4 µM and the Kd [2] is listed as 4 µM.
